These results are taken from paper PMC5117717 (2016).

In one experiment the target is HumRadA33 (Pyrococcus furiosus, UniProt O74036 108-349, S167K | V168A | I169M | W170Y | N175G | I182L | R183L | D192S | P193G | D194S | …). The experiment can be described thus: ITC.
A further experiment addresses RadA-ct (Pyrococcus furiosus). The experiment can be described thus: ITC.

As to Ac-NLGTFMRADEYLKKRA-NH2 [RadA oligomerisation peptide], the Kd came to 13 µM with HumRadA33 and 0.6 µM in the experiment with RadA-ct.
